Data published in US20210155689A1 (SHANGHAI PHARMAEXPLORER, published 2021).
Residue numbers refer to the chain shown, from its start.

B1: 105F1E10 (LAG-3 mouse-human chimeric antibody) (antibody, V domains shown)
VH: EVQLQQSGPELVKPGASVKMSCRASGYTFTDFKMHWMKQSHGKSLEWIGYIAPNNGGTAYNQKFRGKATLTVNESSNTAYMELRSLTSEDSAVYYCVDWDDVDYWGQGTTLTVSS
VL: DIKMTQSPSSMYASLGERVTITCKASQDINSYLSWFQQKSGKSPKTLIYRANRLVDGVPSRFSGSGSGQDYSLTISSLEYEDMGIYYCLQYVEFPLTFGAGTKLELK
B2: 405B8H3 (LAG-3 mouse-human chimeric antibody) (antibody, V domains shown)
VH: QVQLQQSGAELVRPGASVTLSCKASGYTFTDYEMHWVKQTPVHGLEWIGATDPETGNSAYNQKFKGKAIMTADKSSSTAYMELRSLTSEDSAVYYCISTGWNDWGQGTSLTVSS
VL: B1 VL with S40P, N52D, V55L, E81G, V92D, L96Y, A100G, L106I
notes: also called mouse-human chimeric antibody 405B8H3
B3: 409D4E10 (LAG-3 mouse-human chimeric antibody) (antibody, V domains shown)
VH: B2 VH with Y27N, G56D, S58T, M70L, A72T, S98T, T99S
VL: B1 VL with S40P, V55L, V92N, L96Y, A100G, L106I
B4: 409B11E12 (LAG-3 mouse-human chimeric antibody) (antibody, V domains shown)
VH: B2 VH with P41T, G56S, N57Y, M70L, S98A
VL: B1 VL with I2L, S40P, V55L, V92D, L96Y, A100G, L106I
B5: 556F6B8 (LAG-3 mouse-human chimeric antibody) (antibody, V domains shown)
VH: RVQLKQSGPGLVQPSQSLSITCTVSGFSLIKYGVHWVRQSPGEGLEWLGVIWRGGITDYNAAFMSRLSITKDNSKSQVFFKMNSLQADDTAIYYCAKWDGPLAMDYWGQGTSVTVSS
VL: DIVMTQSHKFLSTSVGDRVSITCKASQDVGTTVAWYQQKPGQSPKLLIYWASTRHTGVPDRFTGSGSGTDFTLTISNVQSEDLADYFCQQYSSYPYTFGGGTKLEIK
notes: also called 556F8B8
B6: 105F1E10 mouse-human chimeric antibody (antibody, V domains shown)
VH: B1 VH
VL: B1 VL
notes: also called mAb009-105F1E10
B7: 405B8H3 mouse-human chimeric antibody (antibody, V domains shown)
VH: B2 VH
VL: B1 VL with S40P, N52D, V55L, E81G, V92D, L96Y, A100G, L106I
notes: also called mAb103-405B8H3
B8: 409B11E12 mouse-human chimeric antibody (antibody, V domains shown)
VH: B2 VH with P41T, G56S, N57Y, M70L, S98A
VL: B1 VL with I2L, S40P, V55L, V92D, L96Y, A100G, L106I
notes: also called mAb104-409B11E12
B9: 409D4E10 mouse-human chimeric antibody (antibody, V domains shown)
VH: B2 VH with Y27N, G56D, S58T, M70L, A72T, S98T, T99S
VL: B1 VL with S40P, V55L, V92N, L96Y, A100G, L106I
notes: also called mAb112-409D4E10
B10: 556F6B8 mouse-human chimeric antibody (antibody, V domains shown)
VH: B5 VH
VL: B5 VL
notes: also called mAb123-556F6B8; 556F8B8
B11: 405B8H3 (mouse antibody purified from hybridoma) (antibody, V domains shown)
VH: B2 VH
VL: B1 VL with S40P, N52D, V55L, E81G, V92D, L96Y, A100G, L106I
notes: also called mAb103-405B8H3; 405B81-13
B12: 105F1E10 (mouse antibody purified from hybridoma) (antibody, V domains shown)
VH: B1 VH
VL: B1 VL
notes: also called mAb009-105F1E10
B13: 409B11E12 (mouse antibody purified from hybridoma) (antibody, V domains shown)
VH: B2 VH with P41T, G56S, N57Y, M70L, S98A
VL: B1 VL with I2L, S40P, V55L, V92D, L96Y, A100G, L106I
notes: also called mAb104-409B11E12
B14: 409D4E10 (mouse antibody purified from hybridoma) (antibody, V domains shown)
VH: B2 VH with Y27N, G56D, S58T, M70L, A72T, S98T, T99S
VL: B1 VL with S40P, V55L, V92N, L96Y, A100G, L106I
notes: also called mAb112-409D4E10
B15: 556F6B8 (mouse antibody purified from hybridoma) (antibody, V domains shown)
VH: B5 VH
VL: B5 VL
notes: also called mAb123-556F6B8

Molecular target: T1, mouse LAG-3 protein with hFc tag (mLAG-3-hFc protein) (mouse; human, UniProt Q61790 24-442)
T1 construct: Made in HEK293 cells; also called mouse LAG-3 extracellular domain protein; not shown: human IgG Fc fragment (hFc) of the pCpC vector
T1 sequence: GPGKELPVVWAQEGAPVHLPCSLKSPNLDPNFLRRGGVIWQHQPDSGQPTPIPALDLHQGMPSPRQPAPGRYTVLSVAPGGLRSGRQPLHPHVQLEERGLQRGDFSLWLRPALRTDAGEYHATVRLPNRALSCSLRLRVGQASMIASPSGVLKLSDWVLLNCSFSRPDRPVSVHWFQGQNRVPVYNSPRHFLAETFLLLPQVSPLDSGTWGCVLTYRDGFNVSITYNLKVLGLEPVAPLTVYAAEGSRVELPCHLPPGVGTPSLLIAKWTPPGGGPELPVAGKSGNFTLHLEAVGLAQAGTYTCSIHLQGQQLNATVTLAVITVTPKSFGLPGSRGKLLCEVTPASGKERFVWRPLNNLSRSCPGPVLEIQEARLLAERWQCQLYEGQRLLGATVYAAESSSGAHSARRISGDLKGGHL
Assay: ELISA, mLAG-3-hFc coated; 66.6670 nM
Experimental: The plate was sealed with plastic film and incubated overnight at 4° C. The plate was washed 2 times with the plate washing solution (PBS+0.01% Tween20) on the next day, and added with the blocking solution (PBS+0.01% Tween20+1% BSA) and blocked at room temperature for 1-2 hours. The blocking solution was poured out, and the plate was added with 50-100 μl of the antibody sample to be tested to each well, incubated at 37° C. for 1-2 hours, and washed 2-3 times with a plate washing solution (PBS+0.01% Tween20). HRP (horseradish peroxidase) labeled secondary antibody was added, and the plate was incubated at 37° C. for 1-2 hours, and washed 2-3 times with a plate washing solution (PBS+0.01% Tween20). 100 μl of TMB substrate was added to each well. After incubated at room temperature for 15-30 minutes, the plate was added with 100 μl of stop solution (1.0N HCl) to each well.

Q: How did the OD450 turn out when B1 was run?
A: 0.54 OD450

Q: B2 was tested. Which OD450 did it give?
A: 1.1 OD450

Q: Which OD450 does the source give for B3 here?
A: 1.06 OD450

Q: Which OD450 does the source give for B4 here?
A: 1.1 OD450

Q: B5 was tested. Which OD450 did it give?
A: 1.08 OD450

Molecular target: T2, human LAG-3 on cells (HEK293-hLAG-3 stable cell line) (human, UniProt P18627 23-525)
T2 sequence: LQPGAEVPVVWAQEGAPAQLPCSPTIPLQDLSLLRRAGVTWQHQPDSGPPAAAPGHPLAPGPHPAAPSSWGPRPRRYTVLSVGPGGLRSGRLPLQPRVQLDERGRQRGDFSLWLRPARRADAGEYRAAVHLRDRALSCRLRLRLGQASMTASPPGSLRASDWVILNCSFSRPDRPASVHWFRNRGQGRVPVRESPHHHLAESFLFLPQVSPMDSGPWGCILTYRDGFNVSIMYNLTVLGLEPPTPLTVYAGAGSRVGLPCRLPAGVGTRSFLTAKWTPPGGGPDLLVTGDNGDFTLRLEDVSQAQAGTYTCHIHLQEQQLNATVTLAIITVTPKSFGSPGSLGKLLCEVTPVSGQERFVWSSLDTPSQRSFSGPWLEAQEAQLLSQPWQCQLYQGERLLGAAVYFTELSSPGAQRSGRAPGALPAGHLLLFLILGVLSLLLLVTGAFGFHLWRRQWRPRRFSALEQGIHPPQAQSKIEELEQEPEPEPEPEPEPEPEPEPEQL
Assay: FACS, HEK293-hLAG-3, antibody 0.320 nM
From the text: The pIRES plasmid with the monkey-derived full-length gene was transfected into the HEK293 cell line to construct a HEK293 stable cell line containing monkey LAG-3 (herein referred to as HEK293-cLAG-3 stable cell line). The HEK293-hLAG-3 stable cell line and HEK293-cLAG-3 stable cell line were expanded in a T-75 cell culture flask to a 90% confluence. The medium was aspirated, and the cells were washed with HBSS (Hanks' Balanced Salt Solution) 1-2 times, then treated with a enzyme-free cell dissociation fluid (Versene solution: Life technology) and the cells were collected. The cells were washed with HBSS buffer for 1-2 times. After counted, the cells were diluted with HBSS to 1-2×10⁶ cells per ml, added with 1% goat serum blocking solution, incubated on ice for 20-30 minutes, and then washed with HBSS for 2 times by centrifugation. The collected cells were suspended in the FACS buffer (HBSS+1% BSA) to 2×10⁶ cells/ml, added as 100 microliters per well to a 96-well FACS reaction plate, added with 100 microliters per well of the antibody sample to be tested, incubated on ice for 1-2 hours. The plate was washed twice with the FACS buffer by centrifugation, added with 100 microliters of fluorescent (Alexa 488)-labeled secondary antibodies per well, and incubated on ice for 0.5-1.0 hours. The plate was washed 2-3 times with FACS buffer by centrifugation, added with 100 μl fixative solution (4% Paraformaldehyde) per well to suspend the cells. 5-10 minutes later, it was washed 1-2 times with FACS buffer by centrifugation. The cells were suspended with 100 microliters of FACS buffer, FACS (FACSCalibur, BD) was used for detection and the results were analyzed.

Q: Which Mean fluorescence intensity does the source give for B6 here?
A: 10.7

Q: How did the Mean fluorescence intensity turn out when B7 was run?
A: 17.3

Q: For B8, which Mean fluorescence intensity is on record?
A: 16.8

Q: Which Mean fluorescence intensity does the source give for B9 here?
A: 15.7

Q: For B10, which Mean fluorescence intensity is on record?
A: 14.3

Molecular target: T3, human LAG-3 protein with hFc tag (hLAG-3-hFc protein) (human, UniProt P18627 23-450)
T3 construct: also called immunogen 1; LAG-3 extracellular domain protein; not shown: human IgG Fc fragment (hFc) of the pCpC vector
T3 sequence: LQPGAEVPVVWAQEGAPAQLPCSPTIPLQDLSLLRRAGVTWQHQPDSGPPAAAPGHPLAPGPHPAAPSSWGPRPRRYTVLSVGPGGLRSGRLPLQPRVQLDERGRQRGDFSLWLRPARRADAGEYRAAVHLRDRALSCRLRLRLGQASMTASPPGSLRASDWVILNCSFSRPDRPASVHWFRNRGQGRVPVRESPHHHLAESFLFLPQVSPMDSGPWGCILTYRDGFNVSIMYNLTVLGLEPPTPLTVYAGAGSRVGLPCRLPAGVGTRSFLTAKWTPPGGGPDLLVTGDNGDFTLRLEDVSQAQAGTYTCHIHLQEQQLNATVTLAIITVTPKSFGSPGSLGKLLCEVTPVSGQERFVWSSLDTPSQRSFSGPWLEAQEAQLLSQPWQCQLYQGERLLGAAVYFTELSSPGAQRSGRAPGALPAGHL
Assay: FACS, blocks LAG-3-hFc binding to MHC II on Raji; 22.222 nM
Experimental: The FACS reaction plate incubating the Raji cells was centrifuged to discard the supernatant. The above mixture was added as 100 μl per well to Raji cells and incubated on ice for 1-2 hours. The plate was washed twice with blocking solution (PBS, 2% fetal bovine serum) by centrifugation, added with 100 microliters of fluorescent (Alexa 488)-labeled secondary antibodies per well, and incubated on ice for 1.0 hours. The plate was washed 2-3 times by centrifugation with blocking solution (PBS, 2% fetal bovine serum), added with 100 microliters of PBS per well to suspend cells, and detected using FACS (FACS Calibur, BD) and the results were analyzed. Wherein, the IgG control was murine IgG, and the data in the table is the inhibition rate (%).

Q: For B11, which “Inhibition rate (%)” value is on record?
A: 93.6%

Q: How did the “Inhibition rate (%)” value turn out when B12 was run?
A: 93.6%

Q: With B13 as the binder, how does the “Inhibition rate (%)” value read?
A: 95.3%

Q: With B14 as the binder, how does the “Inhibition rate (%)” value read?
A: 95.8%

Q: B15 was tested. Which “Inhibition rate (%)” value did it give?
A: 95.6%
